From article PMC8387475, “Combined intermittent fasting and ERK inhibition enhance the anti-tumor effects of chemotherapy via the GSK3β-SIRT7 axis” (Nature Communications, 2021)

Target: T1, His-GSK3β (UniProt P49841 1-420)
T1 construct: GSK3β, recombinant protein of the GST pull-down; The reagents list a bought recombinant human GSK3β protein (active) (Abcam ab60863); also called recombinant His-GSK3β; source: recombinant
Experiment: pull-down; GST pull-down with recombinant GST-SIRT7 and His-GSK3β
Settings: both partners purified

T1 sequence (P49841 whole entry): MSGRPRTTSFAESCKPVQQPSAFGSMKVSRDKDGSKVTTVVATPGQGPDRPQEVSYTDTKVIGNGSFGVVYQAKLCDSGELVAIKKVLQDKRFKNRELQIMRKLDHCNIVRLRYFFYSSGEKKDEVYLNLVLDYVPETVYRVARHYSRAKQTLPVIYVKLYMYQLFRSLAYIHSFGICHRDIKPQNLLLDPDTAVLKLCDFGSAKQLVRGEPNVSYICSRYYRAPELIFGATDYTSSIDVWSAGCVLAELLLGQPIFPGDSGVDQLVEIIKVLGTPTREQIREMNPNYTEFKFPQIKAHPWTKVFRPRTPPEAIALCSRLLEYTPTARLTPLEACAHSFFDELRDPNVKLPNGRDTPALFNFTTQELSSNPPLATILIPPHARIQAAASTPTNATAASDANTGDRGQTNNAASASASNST

B1: GST-SIRT7 (natural protein, human, UniProt Q9NRC8 1-400, looked up)
chain: MAAGGLSRSERKAAERVRRLREEQQRERLRQVSRILRKAAAERSAEEGRLLAESADLVTELQGRSRRREGLKRRQEEVCDDPEELRGKVRELASAVRNAKYLVVYTGAGISTAASIPDYRGPNGVWTLLQKGRSVSAADLSEAEPTLTHMSITRLHEQKLVQHVVSQNCDGLHLRSGLPRTAISELHGNMYIEVCTSCVPNREYVRVFDVTERTALHRHQTGRTCHKCGTQLRDTIVHFGERGTLGQPLNWEAATEAASRADTILCLGSSLKVLKKYPRLWCMTKPPSRRPKLYIVNLQWTPKDDWAALKLHGKCDDVMRLLMAELGLEIPAYSRWQDPIFSLATPLRAGEEGSHSRKSLCRSREEAPPGDRGAPLSSAPILGGWFGRGCTKRTKRKKVT
notes: SIRT7 cloned into pGEX-4T-3; also called GST-SIRT7-WT; recombinant GST-SIRT7; source: E. coli BL21, purified (glutathione agarose)
binding result: binds
